The values that follow come from the DeepSol protein solubility set.

This series can be described thus: soluble on expression in E. coli; label from the status in PepcDB or PDB records.
On to “SENWDLSSDEMQDGNAPELDVIEEHNPVTRDDENANPEEVVGDTRSPVQNILGKFEGDINKRLHIKRKRMETYIKDSFKDSNVKLEQLWKTNKQERKKINNKFCEQYITTFQKFDMDVQKFNEEQEKSVNNYQKEQQALKLSKCSQSQTLEAIKDMHENYMEGLMNLETNNYNMLFDVDGELRKEMSVFKKDLMKHTLKYSSSFPSSD”, for which the “soluble on expression in E. coli” value was “not soluble”. The same measure for “MKSVKNSWNSSIKDGEYQRKESQFRNWITTDGSAGITGRGGFQAEAGRYHLYVSLACPWAHRTLIFRQLKGLEDLITVSVVHPDMHENGWSFKHDEESAKLYGTTGDNLYDGKFISEKYLAQDPDYSGVNSVPVLWDKKDKVIVNNESSEIIRMFNSAFNDITGNTLDFYPEHLREKIDHENELVYHKINNGVYKTGFATTQEAYDKNVNELFAALEQIDEKLSKQRYLTGDEITEADWRLWATLVRFDSVYHTHFKCNLKLIKEFSNIYNYMLELFQVPNVAKTVNEAHIKRHYYASHVAINPYGIVPIAHQQDWTAQHNRDKQFS”: “not soluble”; for “MASTIYTCKECGSDLNLNPNDLFPPDFYFEAGNKGTLSFAAVDAEKFRFEKEDKIMPFFETLNYWGIQRKRTKIKCTSCNHLIGYIYDDGPPLTGGIGQYGFGPSQVIPRAPRYRFKTKARQDGWQYGGLTAFWN”: “not soluble”; for “SLGAGQPLGGYAEDLEGRQADLPKYSRANVRIVFAAVFPESNVYQGGEGYPTPSSSRLLLLDQVKTYYALSSIHGVEIIESWRSAQEVLEAPRWRLGLLLHLEGADALADILDLELLHRLGFRSLGLTWNHDNRWAASCKTRRDYGLTQSGEDLVKKAAELGVIIDLAHASDKTVADAASASPKPVIVSHANFRWKVDSPRNVGEEAVEAVVSKGGVIGYSLISTLITRGRHPTLHDVASQMAEFVEVYGHRHLAIGTDYHGLLDIRPPTGLESIDRLPRLLEALADAGLSDRQIEAIAYGNIARVIREVLPES”: “not soluble”. The same measure for “GPLGSMDSPPEGYRRNVGICLMNNDKKIFAASRLDIPDAWQMPQGGIDEGEDPRNAAIRELREETGVTSAEVIAEVPYWLTYDFPPKVREKLNIQWGSDWKGQAQKWFLFKFTGQDQEINLLGDGSEKPEFGEWSWVTPEQLIDLTVEFKKPVYKEVLSVFAPHL”: “soluble”. Turning to “MGSDKIHHHHHHMRDYSPYPLLVDVCVTNRCNLSCSYCSAEAGPFASKKGEMSVEKLDSIFRELNLMGVPRVGVTGGEPFIRDDILDILKAFDKYHFAKVLNTNGNLITDSVAKELSKLHLDRICVTVDGSCSKVHDSQRGKGSFKKAIEGIKNLQRYNLPVSTLFTLGRHNVDDLINTIRLNDMLRIKYMSVMIICPTGRANNGSILADKKHWYPVFLDLTERLSRGEFKVKFKIVPPNESDVFWTHYFPLAFYNRLDLLESVWHQSLNFNSNKKREISCQAGVRACSINHKGDVYGCDLMNGIDELVAGNVKEKSFYEIWHNSSIFHKLRNITFDDISGKCAGCPLPWCGGGCRCSALELDGTLLGSDLACFYDEEESVLV”, the “soluble on expression in E. coli” value is “not soluble”. With “MENKYTHGVLFYHEHSGLKNINQGIGEVTTALSSICKHLSIQLSENEGDIIKYCQEIKTKNYAKDVDILFILGGDGTVNELINGVMTHDLQLPIGILPGGTFNDFTKTLNIAPNHKQASEQMISAQVGKYDVIKINNQYALNFVGLGLIVQNAENVQDGSKDIFGKLSYIGSTVKTLLNPTQFNYQLSIDDKTYSGETTMILTANGPFIGGSRIPLTDLSPQDGELNTFIFNEQSFSILNDIFKKRDSMNWNEITQGIEHIPGKKISLTTDPAMKVDIDGEISLETPIDIEVIPNAIQLLTVNDLLEHHHHHH” the entry was “not soluble”. The same measure for “MGSDKIHHHHHHLQKYLSILRNSPFFKGLADNEILSILHCVNATTISKKRDSYIFRAGDITEVMGIVVSGCVLIIQEDIWGHRNILSKCHAGDFFGEPYAASQRAVLNISVVADEDCEIILLNVKRLLITCPTACEHHQKLIRNLVSVLANKILILNDKITHVGKRTTRDKLLSYLSAESIRHSSLSFDIPFDRQQLADYLCIDRAAMSTEISKLQKEGFIKTNRNHFELQLSIIKKKNYTI”: “not soluble”; for “MNHSRTIPVVNIAGPGSQPEEEDFNFLPIPAGINLPLTPVLPEQALPAELRVARHILTTLIRDMDNPVATLPFPLSYKLNATEQQNSGLLDQLLGEGEISARVLLSDGKEQRIQETVFTGVWRVREYNADQQRVADEIIIGPIPESIWQTHPQPPITPELPPQPAGLMNGAFIAHEIAERVKQPVKEPHIINLTLLPVNDADREYLDHFLGEGCSAIFSRGYGKCRIVSTHFPGVWRVNYFNDMNTLLQDMIEIADIPDIAVAGIDDIEDAYAGLKNTLEWLKEYPVTENEPVVRMECKVCWWVYDPALGDDVWQIPPGVPFNQLPDYWCCPVCETSKSGFMVIDEGNSSCKD”: “not soluble”. Turning to “MSDPKQKSDDLPEQVEQPEQGGGNDGQEEDVQMAEVSEQELERVRTLLHRDWMYSFTPERVRRYHLNRSDYLNEEIRHSQRAIRNALLGYKHASNSRKTCRTDLLDTTWILENLELVGRQLPRESSSQGNPNQESVQELHRQICQLFEDDALAVCERGHNQEVALDLASQVIATHMRTIREFQEEYFKVTGKKHELKKLEDNAYGVLLTPSPKRMPKNFQRRRSDGDDDDDGPGNWGNLNPVAPV”, the “soluble on expression in E. coli” value was “soluble”. The same measure for “MISNKNIFNRFQQWMDTFLMLELQWFLIYANVANQMIVYGCCQMSKKTSNETPKVFLMLGHFFVSLKYPGATETKNWSKKLPFHYFHKYV”: “not soluble”. With “SDSPEQESADDALKRIVDGFQHFRREVFPEQQALFKKLANSQRPRAMFITCADSRIVPELITQSSPGDLFVTRNVGNVVPPYGQMNGGVSTAIEYAVLALGVHHIIVCGHSDCGAMRAVLDPQTLERMPTVKAWLRHAEVARTVVADNCDCGASHDTLGVLTEENVVAQLDHLRTHPSVASRLASGQLFIHGWVYDIESAQIRAYDAKQGRFLPLDGEHPVPMATPAPRYLSS” the entry was “not soluble”.

Take “MPQEIPPAVKYKIYPEGAEGIDTVWERPGFKKGEIEARVKDVVILRGEPVPNSYKMLVEATFELPKKDKITQLGLVNRHGLVTRVHYASPFKGAILPGDIILQVNGTTVSFDEKQLTEHVDETTGGASLQSNVKTVKRKPTTTPKTEPVRAPHSLYPDFKVVVGKILNSKSETKITVLVARLKNRMSTSKIPNGILATQDHTIDLAILYQFKYLQLGLNVQQVDRKVVVNYTIPDSVSHCSLNIGEAIIAVDDKPINTLADNRQRFREGFEANGWIRLLVEYPNTDPIKNMVRGQLANVMRTAERPQYLLCGDVRKYFVEGIEALKNGKALAPILKEEEGPGEVGKKKSDAKVTKKDPAVGFNNTTEEFFIPAEWNSKLFVWLPPLKTKVTESASSNMPVKK”: the “soluble on expression in E. coli” value is “not soluble”. The same measure for “MKYRDLREFLNLLEQQGELVRVKQEIDPYLEMAEIADRTLRKAGPAILFENPKGYQMPVLCNLFGTPKRVALGMGQENTQALRELGKLLAFLKEPEPPKGFKELLGQLPQWKQILNMPSKTRDNAACQQIVIEGDAVNLYDLPIMHCHEEDIAPLITWGLTITQGPHKKRQNLGIYRQQLIAKNKLIMRWLSHRGGALDFQEWKATYPDKPFPVSVAIGADPATILAAVTPIPDTLPEYAFAGLLRGHKTEVIKSISNQLDVPASAEIVLEGYIDVNETALEGPYGDHTGYYNEQEYFPVFTVTHITMRKDAIYHSTYTGRPPDEPAVLGEALNEVFIPILQKQFPEIVDFYLPPEGCSYRLAVVTIKKQYAGHAKRVMMGVWSFLRQFMYTKFVIVCDDDINARNWKDVIWAITTRCDPSRDTTLIENTPIDYLDFASPIAGLGSKMGIDATNKWNGETIREWGKPITKNQQVVQHIDELWDQLGLLEHHHHHH”: “not soluble”. With “MSKEPGEDVDLFDMEQFQSSFKRILQRALKNVTVSFRVYEKDSVWIRVAWGTQYSQPNQYKPTFVVYYPQTPYAFISSCHLKNTVPLLHQALKVASKHHQIVHLDLRSRHLDSLKAIVFREYNQTCENYSSTTSLQEASLSMCLDSKITHENTEEKVRVHRVTQETFGTYPQPQLEFAQYKLETKFKSNIGGGLLADRKEPFRCLVKFSSPHLLEALKSLAPAGIADAPLSPLLTCIPSKKMNYFKIRDK” the entry was “not soluble”. On to “MSDTHGKFIWVELMTPDMEAAARFYGHVVGWQTKDFGSPEMPYLVLEADGKGMGGVMELTEEHKGQGIPPNWTAYVDVDDVDATAKLFADKGGAIRRPPQDIPEIGRFAVVADPYGAVLCIMTPLPMETGGFPEDMQEKKGHVGWYELFTDNVDEAMAFYGEVFGWTKDHDFDMGEMGPYRIFAHKGKAVGGIMKRMPQVPVCHWGYYFNVDGIEDAITRVSTGGGKVVNGPMEVPGESWIVNCVDPQGAYFSLVSQKK”, for which the “soluble on expression in E. coli” value is “not soluble”. The same measure for “MVALRGKDATSFLARPDPGRPIVLLYGPDAGLVRERADALIAASLDDPKDPFALVRLDGDELSAEPSRLVDEALAIPMFGGRRAIRVRAGSRSFVAGVEALIASPPRECRIVIEAGDIKPDNALRKACEKAATGAVAIGCYPDAEADIARLIDDELRGSNLQIAKDARAVLTTLLGGDRQASRNELRKLALYAHGKGEVTLDDVITCVSDASDLKLDAIVDAAFSGKPVVVETEFAKAMVAGTYPGQIILAAQRHAAFLHKTSLVVEGGTPAAVVLDSGFPRLHFSRKAAAETALRNLSTTRLAQIIEQLASAALETRRQATLGAAIAQRTLLSIAVSARRRSLEHHHHHH”: “soluble”; for “MMKFDNSYAHLPERFSAAVLPTPVKAPRLIAFNRTLAEELLLDVADLDDDRLAAIFSGNVVPQGAEPLAMAYAGHQFGGFVPQLGDGRAILLGEVIDVNGRRRDIQLKGSGPTPFSRRGDGRAALGPVLREYIVSEAMFALGIPATRALAAVLSGDRVQREVGLPGGVFTRVAASHIRVGTFQFFAAREDDEAIRSLADYVIDRHYPDAKNTENPYLALLRGIAERQCALIARWMMVGFIHGVMNTDNMAVSGETIDFGPCAFLDEYHPNKVFSSIDAQGRYAYNNQPGIAQWNIARLAECLLPLLDPEVEKAAELANAVLADFAAAFPQRWLTGMREKLGLTTEEEGDMDLIQSLLSLMQASEADFTLTFRRLSHAANGDAEPFRGMFIDIAGADAFLTRWRERAGREGISDSERSAAMLSINPAIIPRNHRIEELIEAAVEDGDFEPFHAMLTAIATPFEERPDNFVYMQPPMSHERVFRTFCGTLEHHHHHH”: “soluble”. With “MSLEISASIIDISENALEQLGVDWRLHNSRFDLQTGNGTNTMLNNPGSLDSVATTAGAAAAIAATPAGGVLSAVIGGGSRYLMARISALQQTDQARITANPKVATLDNTEAVMDNRQNFYVPVAGYQSADLYAISAGVSLRVLPMVVMDGGTVRIRMNVHIEDGQITSQQVGNLPITSQSEIDTQALINEGDSLLIAGYSVEQQSKSVDAVPGLSKIPLVGALFRTDQTTGKRFQRMFLVTPRVITEGHHHHHH” the entry was “not soluble”.

Regarding “VCEKGFEAGDNKLGGALNAKHVEKYGDNFKNGMHKPEFHEDGLHKPMEVGGKKFESGFHYLLECHELGGKNASGGYGGPLCEDPYGSEVQAMTEKLLKEADSDRTLCFNNFQDPCPQLTKEQVAMCKGFDYGDKTLKLPCGPLPWPAGLPEPGYVPKTNPLHGRWITVSGGQAAFIKEAIKSGMLGAAEANKIVADTDHHQTGGMYLRINQFGDVCTVDASVAKFARAKRTWKSGHYFYEPLVSGGNLLGVWVLPEEYRKIGFFWEMESGRCFRIERRAFPVGPYTFMRQATEVGGKISFVFYVKVSNDPESDPIPLQSRDYTALAGRDNAPTNLGKPYPTLAKDLDYPKKRDGWLEKNEKEMLRQRNIVSSTF”, the “soluble on expression in E. coli” value is recorded as “soluble”.
